Tested on: Escherichia coli TOP10
Experiment: shrunken log2 fold change of peptide-encoding DNA abundance (4.5 h post-induction vs induction); higher = less antimicrobial activity (less host growth inhibition)
Conditions: time post-induction: 4.5 h; library: site-saturation at positions 5, 18, 19, 20
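Also: peptides expressed intracellularly from a pBAD plasmid library in pooled LB shake-flask culture, induced with 0.3% L-arabinose, DNA abundance read by NGS, three biological replicates, DESeq2 with apeglm shrinkage.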

Sequence	shrunken log2 fold change
RRIRPRPPRLPRPRPRPEITPRP	0.175
RRIRNRPPRLPRPRPRPLYPPRP	-0.586
RRIRLRPPRLPRPRPRPETNPRP	0.467
RRIRDRPPRLPRPRPRPNIRPRP	-0.0481
RRIRLRPPRLPRPRPRPQHIPRP	-0.812
RRIRGRPPRLPRPRPRPRDKPRP	0.373
RRIRTRPPRLPRPRPRPEGPPRP	0.285
RRIRTRPPRLPRPRPRPLIDPRP	-0.0458
RRIRARPPRLPRPRPRPMDRPRP	0.108
RRIRIRPPRLPRPRPRPGTHPRP	-0.431
RRIRQRPPRLPRPRPRPMDYPRP	-0.0062
RRIRARPPRLPRPRPRPPNLPRP	0.342
RRIRYRPPRLPRPRPRPDFAPRP	0.0515
RRIRVRPPRLPRPRPRPGNQPRP	-0.284
RRIRMRPPRLPRPRPRPENKPRP	1.48
RRIRRRPPRLPRPRPRPWFNPRP	-0.241
RRIRCRPPRLPRPRPRPLEGPRP	0.15
RRIRARPPRLPRPRPRPNEQPRP	0.234
RRIRSRPPRLPRPRPRPTNVPRP	-0.358
RRIRLRPPRLPRPRPRPHDWPRP	0.184
RRIRTRPPRLPRPRPRPGRQPRP	0.0723
RRIRCRPPRLPRPRPRPRHGPRP	0.116
RRIRVRPPRLPRPRPRPESGPRP	0.177
RRIRWRPPRLPRPRPRPYAAPRP	0.445
RRIRGRPPRLPRPRPRPSSEPRP	0.351

Sequence	shrunken log2 fold change
RRIRKRPPRLPRPRPRPDSDPRP	0.123
RRIRRRPPRLPRPRPRPMMCPRP	0.102
RRIRERPPRLPRPRPRPRLAPRP	0.269
RRIRPRPPRLPRPRPRPYKMPRP	-0.605
RRIRGRPPRLPRPRPRPQMEPRP	0.473
RRIRQRPPRLPRPRPRPCNVPRP	-0.0261
RRIRYRPPRLPRPRPRPQAWPRP	0.0215
RRIRTRPPRLPRPRPRPQEQPRP	0.021
RRIRFRPPRLPRPRPRPEMWPRP	-0.0843
RRIRMRPPRLPRPRPRPTTQPRP	0.081
RRIRCRPPRLPRPRPRPCYKPRP	0.0187
RRIRSRPPRLPRPRPRPFRKPRP	-0.176
RRIRSRPPRLPRPRPRPKWRPRP	0.29
RRIRWRPPRLPRPRPRPPMWPRP	0.108
RRIRNRPPRLPRPRPRPMVKPRP	-0.00408
RRIRARPPRLPRPRPRPYGRPRP	0.0766
RRIRIRPPRLPRPRPRPDRTPRP	-0.0709
RRIRLRPPRLPRPRPRPVPHPRP	-0.128
RRIRHRPPRLPRPRPRPVMPPRP	0.189
RRIRYRPPRLPRPRPRPGQDPRP	-0.346
RRIRHRPPRLPRPRPRPWMVPRP	-0.0202
RRIRIRPPRLPRPRPRPQRGPRP	0.0568
RRIRERPPRLPRPRPRPCKIPRP	-0.00331
RRIRFRPPRLPRPRPRPCSRPRP	-0.22
RRIRKRPPRLPRPRPRPYKGPRP	-0.185

Sequence	shrunken log2 fold change
RRIRKRPPRLPRPRPRPWVQPRP	0.0916
RRIRERPPRLPRPRPRPQKYPRP	-1.15
RRIRGRPPRLPRPRPRPPCFPRP	0.456
RRIRRRPPRLPRPRPRPMAQPRP	0.318
RRIRFRPPRLPRPRPRPISIPRP	-0.697
RRIRWRPPRLPRPRPRPERYPRP	0.142
RRIRYRPPRLPRPRPRPCWEPRP	-0.288
RRIRARPPRLPRPRPRPVPTPRP	0.57
RRIRNRPPRLPRPRPRPLHLPRP	-0.59
RRIRFRPPRLPRPRPRPGLPPRP	0.255
RRIRWRPPRLPRPRPRPEQGPRP	-0.00277
RRIRDRPPRLPRPRPRPPYVPRP	-0.0635
RRIRCRPPRLPRPRPRPDITPRP	-0.022
RRIRLRPPRLPRPRPRPKTCPRP	0.118
RRIRRRPPRLPRPRPRPCRIPRP	-0.0873
RRIRRRPPRLPRPRPRPRDGPRP	0.731
RRIRHRPPRLPRPRPRPHHKPRP	-0.556
RRIRKRPPRLPRPRPRPEDKPRP	0.0421
RRIRSRPPRLPRPRPRPEQWPRP	0.172
RRIRARPPRLPRPRPRPKADPRP	0.597
RRIRFRPPRLPRPRPRPMWDPRP	-0.469
RRIRRRPPRLPRPRPRPFKDPRP	-0.11
RRIRKRPPRLPRPRPRPNIWPRP	0.519
RRIRMRPPRLPRPRPRPIGTPRP	0.403
RRIRMRPPRLPRPRPRPYHPPRP	-0.423
